This is an account of results in the supplement of paper PMC5998384.

Data set [1] has as its system HeLa Kyoto. Nature of the data set: melting temperature (median over replicates), in situ; higher = more thermally stable.
For data set [2], the system named is HeLa Kyoto. Nature of the data set: thermal stability score vs G1/S (z-score of summed log2 fold changes over temperatures); higher = more thermally stable than in G1/S.
Data set [3] has as its system HeLa Kyoto. Nature of the data set: solubility change mitosis vs G1/S (difference of NP-40 vs SDS log2 ratios) (log2 ratio difference); higher = more soluble in mitosis.
Data set [4] has as its system HeLa Kyoto. Nature of the data set: solubility in G1/S (NP-40 vs SDS abundance) (log2 ratio); higher = more soluble. The settings on record: cell cycle stage: G1/S.
Where [5] appears, read: cell cycle stage: early G1 (4.5 h after nocodazole release).
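Throughout, for melting temperature (median over replicates), in situ: HeLa Kyoto cells synchronized by double thymidine or nocodazole block, proteins quantified by TMT10plex mass spectrometry, three independent biological replicates.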
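Throughout, for solubility change mitosis vs G1/S (difference of NP-40 vs SDS log2 ratios): synchronized HeLa Kyoto cells (double thymidine block for G1/S, nocodazole release for mitosis), protein amounts in NP-40 versus SDS lysates quantified by mass spectrometry, three biological replicates.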
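Throughout, for solubility in G1/S (NP-40 vs SDS abundance): HeLa Kyoto cells arrested at G1/S by double thymidine block, proteins quantified by TMT10plex mass spectrometry in mild NP-40 versus SDS extracts, three biological replicates.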
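Throughout, for thermal stability score vs G1/S (z-score of summed log2 fold changes over temperatures): synchronized HeLa Kyoto cells, proteins quantified by TMT10plex mass spectrometry, three biological replicates, mitosis taken 0.5 h after nocodazole release, G1/S directly after double thymidine block.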

Take “MATSVLCCLRCCRDGGTGHIPLKEMPAVQLDTQHMGTDVVIVKNGRRICGTGGCLASAPLHQNKSYFEFKIQSTGIWGIGVATQKVNLNQIPLGRDMHSLVMRNDGALYHNNEEKNRLPANSLPQEGDVVGITYDHVELNVYLNGKNMHCPASGIRGTVYPVVYVDDSAILDCQFSEFYHTPPPGFEKILFEQQIF [SPRYD7]”: the melting temperature with HeLa Kyoto [1] (cell cycle stage: G1/S) worked out at 52.6 °C; with HeLa Kyoto [1] (cell cycle stage: mitosis), 54.2 °C. In addition, the figures for the thermal stability score in the data set on HeLa Kyoto [2] (setting [5]) and in the data set on HeLa Kyoto [2] (cell cycle stage: mitosis) were 0.0977 and -1.67, respectively. Moreover, the “solubility change mitosis (log2)” value in the data set on HeLa Kyoto [3] is -0.19. The “solubility in G1/S (log2)” value with HeLa Kyoto [4] was 0.156.
For “MATTAAPAGGARNGAGPEWGGFEENIQGGGSAVIDMENMDDTSGSSFEDMGELHQRLREEEVDADAADAAAAEEEDGEFLGMKGFKGQLSRQVADQMWQAGKRQASRAFSLYANIDILRPYFDVEPAQVRSRLLESMIPIKMVNFPQKIAGELYGPLMLVFTLVAILLHGMKTSDTIIREGTLMGTAIGTCFGYWLGVSSFIYFLAYLCNAQITMLQMLALLGYGLFGHCIVLFITYNIHLHALFYLFWLLVGGLSTLRMVAVLVSRTVGPTQRLLLCGTLAALHMLFLLYLHFAYHKVVEGILDTLEGPNIPPIQRVPRDIPAMLPAARLPTTVLNATAKAVAVTLQSH [YIPF3]”, the values for the melting temperature in the data set on HeLa Kyoto [1] (cell cycle stage: G1/S) and in the data set on HeLa Kyoto [1] (cell cycle stage: mitosis) were 55.9 °C and 55.7 °C, respectively. In addition, the thermal stability score was -2.34 in the data set on HeLa Kyoto [2] (setting [5]) and -3.63 in the data set with HeLa Kyoto [2] (cell cycle stage: mitosis). For the same sequence, the “solubility change mitosis (log2)” value in the data set with HeLa Kyoto [3] was -0.0133. Further, in the data set on HeLa Kyoto [4], the “solubility in G1/S (log2)” value was -0.107.
In the case of “MATYLEFIQQNEERDGVRFSWNVWPSSRLEATRMVVPLACLLTPLKERPDLPPVQYEPVLCSRPTCKAVLNPLCQVDYRAKLWACNFCFQRNQFPPAYGGISEVNQPAELMPQFSTIEYVIQRGAQSPLIFLYVVDTCLEEDDLQALKESLQMSLSLLPPDALVGLITFGRMVQVHELSCEGISKSYVFRGTKDLTAKQIQDMLGLTKPAMPMQQARPAQPQEHPFASSRFLQPVHKIDMNLTDLLGELQRDPWPVTQGKRPLRSTGVALSIAVGLLEGTFPNTGARIMLFTGGPPTQGPGMVVGDELKIPIRSWHDIEKDNARFMKKATKHYEMLANRTAANGHCIDIYACALDQTGLLEMKCCANLTGGYMVMGDSFNTSLFKQTFQRIFTKDFNGDFRMAFGATLDVKTSRELKIAGAIGPCVSLNVKGPCVSENELGVGGTSQWKICGLDPTSTLGIYFEVVNQHNTPIPQGGRGAIQFVTHYQHSSTQRRIRVTTIARNWADVQSQLRHIEAAFDQEAAAVLMARLGVFRAESEEGPDVLRWLDRQLIRLCQKFGQYNKEDPTSFRLSDSFSLYPQFMFHLRRSPFLQVFNNSPDESSYYRHHFARQDLTQSLIMIQPILYSYSFHGPPEPVLLDSSSILADRILLMDTFFQIVIYLGETIAQWRKAGYQDMPEYENFKHLLQAPLDDAQEILQARFPMPRYINTEHGGSQARFLLSKVNPSQTHNNLYAWGQETGAPILTDDVSLQVFMDHLKKLAVSSAC [SEC23B]”, the melting temperature came out at 50.4 °C with HeLa Kyoto [1] (cell cycle stage: G1/S) and 50.9 °C in the data set with HeLa Kyoto [1] (cell cycle stage: mitosis). Moreover, the thermal stability score was 0.832 with HeLa Kyoto [2] (setting [5]) and 0.395 in the data set on HeLa Kyoto [2] (cell cycle stage: mitosis). Further, the “solubility change mitosis (log2)” value in the data set on HeLa Kyoto [3] is -0.175. In addition, the “solubility in G1/S (log2)” value with HeLa Kyoto [4] amounted to 0.0443.
Turning to “MAVAPRLFGGLCFRFRDQNPEVAVEGRLPISHSCVGCRRERTAMATVAANPAAAAAAVAAAAAVTEDREPQHEELPGLDSQWRQIENGESGRERPLRAGESWFLVEKHWYKQWEAYVQGGDQDSSTFPGCINNATLFQDEINWRLKEGLVEGEDYVLLPAAAWHYLVSWYGLEHGQPPIERKVIELPNIQKVEVYPVELLLVRHNDLGKSHTVQFSHTDSIGLVLRTARERFLVEPQEDTRLWAKNSEGSLDRLYDTHITVLDAALETGQLIIMETRKKDGTWPSAQLHVMNNNMSEEDEDFKGQPGICGLTNLGNTCFMNSALQCLSNVPQLTEYFLNNCYLEELNFRNPLGMKGEIAEAYADLVKQAWSGHHRSIVPHVFKNKVGHFASQFLGYQQHDSQELLSFLLDGLHEDLNRVKKKEYVELCDAAGRPDQEVAQEAWQNHKRRNDSVIVDTFHGLFKSTLVCPDCGNVSVTFDPFCYLSVPLPISHKRVLEVFFIPMDPRRKPEQHRLVVPKKGKISDLCVALSKHTGISPERMMVADVFSHRFYKLYQLEEPLSSILDRDDIFVYEVSGRIEAIEGSREDIVVPVYLRERTPARDYNNSYYGLMLFGHPLLVSVPRDRFTWEGLYNVLMYRLSRYVTKPNSDDEDDGDEKEDDEEDKDDVPGPSTGGSLRDPEPEQAGPSSGVTNRCPFLLDNCLGTSQWPPRRRRKQLFTLQTVNSNGTSDRTTSPEEVHAQPYIAIDWEPEMKKRYYDEVEAEGYVKHDCVGYVMKKAPVRLQECIELFTTVETLEKENPWYCPSCKQHQLATKKLDLWMLPEILIIHLKRFSYTKFSREKLDTLVEFPIRDLDFSEFVIQPQNESNPELYKYDLIAVSNHYGGMRDGHYTTFACNKDSGQWHYFDDNSVSPVNENQIESKAAYVLFYQRQDVARRLLSPAGSSGAPASPACSSPPSSEFMDVN [USP11]”, the melting temperature in the data set on HeLa Kyoto [1] (cell cycle stage: G1/S) came to 47.3 °C; in the data set with HeLa Kyoto [1] (cell cycle stage: mitosis), 48.1 °C. The thermal stability score in the data set with HeLa Kyoto [2] (setting [5]) worked out at 2.48; with HeLa Kyoto [2] (cell cycle stage: mitosis), 4.39. For the same sequence, the “solubility change mitosis (log2)” value in the data set with HeLa Kyoto [3] is -0.0102. The “solubility in G1/S (log2)” value in the data set on HeLa Kyoto [4] is -0.0353.
Take “MAVARAALGPLVTGLYDVQAFKFGDFVLKSGLSSPIYIDLRGIVSRPRLLSQVADILFQTAQNAGISFDTVCGVPYTALPLATVICSTNQIPMLIRRKETKDYGTKRLVEGTINPGETCLIIEDVVTSGSSVLETVEVLQKEGLKVTDAIVLLDREQGGKDKLQAHGIRLHSVCTLSKMLEILEQQKKVDAETVGRVKRFIQENVFVAANHNGSPLSIKEAPKELSFGARAELPRIHPVASKLLRLMQKKETNLCLSADVSLARELLQLADALGPSICMLKTHVDILNDFTLDVMKELITLAKCHEFLIFEDRKFADIGNTVKKQYEGGIFKIASWADLVNAHVVPGSGVVKGLQEVGLPLHRGCLLIAEMSSTGSLATGDYTRAAVRMAEEHSEFVVGFISGSRVSMKPEFLHLTPGVQLEAGGDNLGQQYNSPQEVIGKRGSDIIIVGRGIISAADRLEAAEMYRKAAWEAYLSRLGV [UMPS]”: the values for the melting temperature in the data set with HeLa Kyoto [1] (cell cycle stage: G1/S) and with HeLa Kyoto [1] (cell cycle stage: mitosis) were 53.9 °C and 53 °C, respectively. The thermal stability score in the data set on HeLa Kyoto [2] (setting [5]) is -0.259; in the data set with HeLa Kyoto [2] (cell cycle stage: mitosis) it was -1.37. In addition, the “solubility change mitosis (log2)” value in the data set on HeLa Kyoto [3] was -0.08. The “solubility in G1/S (log2)” value in the data set on HeLa Kyoto [4] was 0.169.
